Results published in the supplement of paper PMC12667976.

B1: library; numbered along this chain (parent)
chain: MATDAALRRLLRLHRTEIAVAVDSAFPLLHALADHDVVPEDKFQETLHLKEKEGCPQAFHALLSWLLTQDSTAILDFWRVLFKDYNLERYGRLQPILDSFPKDVDLSQPRKGRKPPAVPKALVPPPRLPTKRKASEEARAAAPAALTPRGTASPGSQLKAKPPKKPESSAEQQRLPLGNGIQTMSASVQRAVAMSSGDVPGARGAVEGILIQQVFESGGSKKCIQVGGEFYTPSKFEDSGSGKNKARSSSGPKPLVRAKGAQGAAPGGGEARLGQQGSVPAPLALPSDPQLHQKNEDECAVCRDGGELICCDGCPRAFHLACLSPPLREIPSGTWRCSSCLQATVQEVQPRAEEPRPQEPPVETPLPPGLRSAGEEVRGPPGEPLAGMDTTLVYKHLPAPPSAAPLPGLDSSALHPLLCVGPEGQQNLAPGARCGVCGDGTDVLRCTHCAAAFHWRCHFPAGTSRPGTGLRCRSCSGDVTPAPVEGVLAPSPARLAPGPAKDDTASHEPALHRDDLESLLSEHTFDGILQWAIQSMARPAAPFPS

Variants of: B1
Assay: AIRE transcriptional activation functional score (insulin promoter-GFP; nonsense median 0, synonymous median 1) (normalised score); higher = higher AIRE activity (more reporter activation)
Conditions: with insulin promoter-GFP reporter in HEK293
Summary of the method: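 Three regions of AIRE were covered by codon-optimized NNN-codon libraries, which Bxb1 recombinase integrated into Flp-In T-REx HEK293 landing-pad cells that carry an insulin core promoter-GFP reporter. Integrants (mCherry+, BFP−) were sorted at day 7 and expanded 7 days, and then the top 10% GFP population and the unselected integrant population were tile-sequenced. The functional score is the enrichment of each variant in select versus non-select cells, with wild type subtracted. Variants required 10 counts per million in non-select, and values were rescaled to a nonsense median of 0 and a synonymous median of 1, then averaged over biological replicates.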

AIRE transcriptional activation functional score of substitutions, site by site:
C446: A 0.113; M -0.496; S -0.132; D -0.0826; F 0.403; I 0.167; T -0.0482; G 0.144; K 0.294; W -0.0678; E -1.3; V -0.492; Y -0.213; Q -0.0282; P 0.448; L 0.0671; R 0.0344
C434: M 0.34; E 0.289; K -0.158; T 0.243; Q 0.225; F 0.223; G 0.163; V 0.211; P 0.202; D 0.5; Y 0.0941; W -0.0557; N 0.201; R 0.0925; L 0.207; S 0.275; H 0.179; I 0.0869; A 0.14
H448: A 0.696; W 0.403; I 0.59; S 0.0363; Q 1.05; V 0.416; P 0.0826; T 1.54; N 1.18; D 0.718; Y 1.26; R 0.695; L 1.07; F 0.906
R445: E 0.42; K 1.17; N 1.25; C 0.188; T 0.578; A 0.543; I 0.985; S 0.952; V 0.784; H 0.423; W 0.804; D 0.596; G 0.978; F 0.192; Q 0.898; L 0.998; P 0.738
G438: L 0.0897; A 1.21; N 0.938; S 1.24; C 1.25; K 1.12; E 0.922; M 1.31; Q 1.23; P 0.303; F 0.712; I 1.08; D 0.196; W 1.26; R 1.1; V 1.1; T 0.646
C437: L 0.255; D 0.609; G 0.0855; A 0.0947; K 0.35; S 0.389; R 0.0167; E 0.473; M -0.171; F 0.199; N 0.452; P 0.172; I 0.106; Y 0.215; H 0.0985; V 0.168; W 0.0698; Q 0.296; T 0.164
T447: G 1.03; C 0.201; D 0.924; W 1.32; Q 0.797; N 1.26; M 1.49; V 1.18; F 0.707; A 1.02; L 1.2; I 1.4; E 0.425; R 0.679; Y 0.458; S 1.29
C449: Q 0.388; N -0.014; V 0.0568; S -0.103; G 0.257; W 0.0652; D 0.418; F 0.317; H 0.515; Y 0.106; E 0.0473; T 0.263; A -0.278; L 0.195; I -0.224; R 0.252; P 0.244; M -0.542
G435: N 0.945; D -0.0125; K 1.2; S 0.74; H 0.284; E 0.463; Y 0.365; P 1.14; T 0.0827; Q 0.663; M 0.379; A 1.16; C 1.18; L 0.516; W 0.957; F 0.364; V 0.849; I 0.437; R 1.03
A452: L 0.666; G 0.775; E 1.54; K 0.517; M 0.473; F 0.934; S 1.04; T 0.973; H 0.816; P 0.719; R 0.86; C 1.13; D 0.712; V 0.915
V436: L 0.995; I 1.35; R 0.525; Y 1.28; F 1.11; T 0.824; H 0.883; D 0.874; A 0.0856; M 0.555; C 1.33; K 1.21; N 1.19; S 0.217; Q 0.854; E 0.492; P 0.39; G 0.916
D439: P 0.0529; W 1.2; T 1.03; Q 0.923; I 0.279; L 0.586; N 1.07; G 0.919; H 1.32; F -0.443; A 1.1; V 0.869; C 1.16; E 0.881; R 0.536; K 0.809; S 0.93; Y 1.35
G440: W 0.996; K 0.598; D 0.799; E 0.195; P 1.25; L 0.997; F 1.04; Q 1.15; S 1.16; R 0.76; A 0.417; V 1.3
L444: Y 0.814; K 0.847; V 1.13; C 1.96; A 0.718; D 1.55; T 0.477; H 1.18; S 1.09; M -0.874; W 0.452; P 0.0281; Q 0.642; R 1.17; E 0.903; G 1.27; I 1.08; N 0.882; F 0.489
F453: A 0.274; C 0.283; D 0.307
T441: W 1.57; N 0.751; P 1.13; Q 1.35; V 0.851; Y 1.12; R 0.696; L 1.13; D 0.0827; F 0.823; C 1.25; K 1.31; A 1.03; S 1.02; E 0.676; G 0.478; M 1.24; H 1.1; I 1.08
V443: I 0.968; W 0.235; M 1.29; H 1.16; C 1.15; Y 0.882; L 0.596; D 0.0282; N 0.847; G 1.13; F 0.581; K 0.0676; T 0.921; E 1.12; R 0.0498; P 1.15; S 0.937; Q 0.368; A 0.969
A451: T 0.528; V 0.438; H 0.282; E 1.02; R 1.19; P 0.142; I 0.663; D 0.631; N 0.582; L 0.76; S 0.496; K 0.893; F -0.0649; Q -0.927; G 0.686; Y 0.593; W 0.516
R433: Y 0.349; V 0.599; W 1.4
D442: P 0.0269; Y 0.265; Q 1.03; R 0.257; V -0.000931; E 0.869; I -0.0637; K 0.322; L 0.0551; A 0.791; W -0.0188; F -0.04; G 1.08; H 0.38; S 0.83; C 0.845; T 0.24; N 0.93; M 0.124
A450: I 1.2; P 0.565; Y 0.311; Q 1.13; T 0.632; F 1.24; N 1.35; G 0.382; V 1.19; R 1.4; S 0.883; C 0.795; K -0.531; L 1.22; E 1.24; D 1.48; H 1.43
